Results from doi:10.1101/2021.04.08.438944.

What was measured:
[1] = biological target: DNAJB14-ΔDUF tagged with FLAG (human); assay: co-IP
[2] = biological target: DNAJB14-ΔDUF tagged with FLAG (human); assay: co-IP; remark: listed apart in the source

Chain of DNAJB14-ΔDUF tagged with FLAG (human) (Q8TBM8 whole entry, stated change not applied): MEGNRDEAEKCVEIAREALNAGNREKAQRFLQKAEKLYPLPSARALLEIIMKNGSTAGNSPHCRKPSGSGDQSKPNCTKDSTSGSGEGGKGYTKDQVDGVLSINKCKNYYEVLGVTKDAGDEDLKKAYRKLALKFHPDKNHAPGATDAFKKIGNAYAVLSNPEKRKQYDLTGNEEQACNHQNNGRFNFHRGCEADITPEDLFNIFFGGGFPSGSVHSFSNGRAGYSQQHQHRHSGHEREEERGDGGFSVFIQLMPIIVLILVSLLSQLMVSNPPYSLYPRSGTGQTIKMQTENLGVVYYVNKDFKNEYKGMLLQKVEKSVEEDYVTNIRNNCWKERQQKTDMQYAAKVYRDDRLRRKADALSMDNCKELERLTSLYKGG

Row | Molecule | interaction left relative to DNAJB14-FL (co-IP densitometry) [1] | fold lower than DNAJB14-FL (co-IP densitometry) [2]
1 | HSP70 (from UniProt P0DMV8 1-641) (natural protein) | 50% | 
2 | DNAJB12-FL tagged with mOrange (natural protein) MESNKDEAERCISIALKAIQSNQPDRALRFLEKAQRLYPTPRVRALIESLNQKPQTAGDQPPPTDTTHATHRKAGGTDAPSANGEAGGESTKGYTAEQVAAVKRVKQCKDYYEILGVSRGASDEDLKKAYRRLALKFHPDKNHAPGATEAFKAIGTAYAVLSNPEKRKQYDQFGDDKSQAARHGHGHGDFHRGFEADISPEDLFNMFFGGGFPSSNVHVYSNGRMRYTYQQRQDRRDNQGDGGLGVFVQLMPILILILVSALSQLMVSSPPYSLSPRPSVGHIHRRVTDHLGVVYYVGDTFSEEYTGSSLKTVERNVEDDYIANLRNNCWKEKQQKEGLLYRARYFGDTDMYHRAQKMGTPSCSRLSEVQASLHG |  | 3 fold lower
